Measured values: patent US20180162952A1 (AbbVie / Abbott, published 2018)

B1: SC6.21 (antibody, V domains shown)
VH: DVQLQESGPGLVKPSQTLSLTCSVPDYSITSDYHWHWIRQFPGNKLEWMGYISSRGSTNYNPSLKNRISITHDTSENQFFLKLTSVTTEDSATYYCAGLSQLALDYWGQGTTLTVSS
VL: DIVMSQSPSSLAVSVGEKVTLSCKSSQSLLYSSTQNNYLAWYQQTPGQSPKLLIYWASTRESGVPDRFTGSGSGTDFTLTISSVKAEDLAVYYCQQYYSYPWTFGGGTKLEIK
notes: Murine monoclonal antibody
B2: SC6.24 (antibody, V domains shown)
VH: QVQLQQSGPEVVRPGVSVKISCKGSGYTFTDYAVHWVKLSHAKSLEWIGVISTYNDYTYNNQDFKGKATMTVDKSSSTAYMELARLTSEDSAIYYCARGNSYFYALDYWGQGTSVTVSS
VL: DIVLTQSPASLAVSLGQRATISCRASESVDSYGKSFMHWYQQRPGQPPKLLIYRASNLESGIPARFSGSGSRTDFTLTINPVEADDVATYYCQQSNEDPWTFGGGTKLEIK
notes: Murine monoclonal antibody, kappa light chain
B3: SC6.23 (antibody, V domains shown)
VH: QVTLKESGPGILKPSQTLSLTCSFSGFSLSTSNMGVGWIRQPSGKGLEWLAHIWWDDDKYYNPSLKSQLTISKDTSRNQVFLKITSVDTEDTATYYCVRSNYGYAWFAYWGQGTLVTVSA
VL: DIKMTQSPSSMYASLGERVTITCKASQDIYPYLNWFQQKPGKSPKTLIYRTNRLLDGVPSRFSGSGSGQDYSLTISSLDYEDMGIYYCLQYDEFPLTFGAGTKLELK
notes: Murine monoclonal antibody, kappa light chain; also called murine SC6.23
B4: hSC6.23 (antibody, V domains shown)
VH: QITLKESGPTLVKPTQTLTLTCTFSGFSLSTSNMGVGWIRQPPGKALEWLAHIWWDDDKYYSPSLKSRLTITKDTSKNQVVLTMTNMDPVDTATYYCVRSNYGYAWFAYWGQGTLVTVSS
VL: DIQMTQSPSSLSASVGDRVTITCKASQDIYPYLNWFQQKPGKAPKTLIYRTNRLLDGVPSRFSGSGSGTDFTFTISSLQPEDIATYYCLQYDEFPLTFGAGTKLEIK
notes: Humanized; also called humanized SC6.23
B5: SC6.58 (antibody, V domains shown)
VH: EVKLLESGGGLVQPGGSLKLSCAASGFDFSRYWMSWVRQAPGKGLEWIGDLNPDSSAINYTPSLKDKFIISRDNAKNTLYLQMSKVRSEDTALYYCTLITTLVPYTMDFWGQGTSVTVSS
VL: ETTVTQSPASLSMAIGEKVTIRCITNTDIDDDMNWYQQKPGEPPKLLISEGNGLRPGVPSRFSSSGYGTDFVFTIENMLSEDVADYYCLQSDNLPLTFGSGTKLEIK
notes: as for B2
B6: hSC6.41 (antibody, human IgG1, V domains shown)
VH: QVQLVQSGAEVKKPGASVKVSCKASGYTFKDYYMHWVRQAPGQGLEWMGWIDPENGDTEYAPEFQGRVTMTRDTSTSTVYMELSSLRSEDTAVYYCNACNYGSAYGYWGQGTTLTVSS
VL: DIVMTQSPLSLPVTPGEPASISCRSSKSLLHTKGDTYLYWFLQKPGQSPQLLIYRMSNRASGVPDRFSGSGSGTDFTLKISRVEAEDVGVYYCMQHLEYPFTFGQGTKLEIKR
notes: Humanized; also called humanized SC6.41
B7: SC6.41 (antibody, V domains shown)
VH: EVQLQQSGAESVRSGASVKLSCTASGLNIKDYYMHWVNLRPEQGLEWIGWIDPENGDTEYAPEFQGKATMTADTSSNTAYLQLSSLTSEDTAVYYCNACNYGSAYGYWGQGTTLTVSS
VL: DIVLTQATPSVPVTPGESVSISCRSSKSLLHTKGDTYLYWFLQRPGQSPQLLIYRMSNLASGVPDRFSGSGSGTVFTLRISRVEAEDVGVYYCMQHLEYPFTFGSGTKLEIKR
notes: as for B2
B8: hSC6.24 (antibody, human IgG1, V domains shown)
VH: QVQLVQSGPEVKKPGASVKVSCKASGYTFTDYAVHWVRQAPGKRLEWIGVISTYNDYTYNNQDFKGRVTMTRDTSASTAYMELSRLRSEDTAVYYCARGNSYFYALDYWGQGTSVTVSS
VL: EIVLTQSPATLSLSPGERATLSCRASESVDSYGKSFMHWYQQKPGQAPRLLIYRASNLESGIPARFSGSGSGTDFTLTISSLEPEDFAVYYCQQSNEDPWTFGGGTKLEIKR
B9: hSC6.58 (antibody, human IgG1, V domains shown)
VH: EVQLVESGGGLVQPGGSLRLSCAASGFDFSRYWMSWVRQAPGKGLEWIGDLNPDSSAINYVDSVKGRFTISRDNAKNSLYLQMNSLRAEDTAVYYCTLITTLVPYTMDFWGQGTSVTVSS
VL: ETTLTQSPAFMSATPGDKVNISCITNTDIDDDMNWYQQKPGEAAILLISEGNGLRPGIPPRFSGSGYGTDFTLTINNIESEDAAYYFCLQSDNLPLTFGSGTKLEIKR
notes: Humanized; also called humanized SC6.58

How the values were obtained:
murine PTK7-His = biological target: T1, murine PTK7-His (murine, UniProt Q8BKG3 23-696, limits assumed); experiment: ForteBio, concentration series of recombinant monomeric antigen
T1 construct: also called mouse PTK7-His; mouse PTK7
T1 sequence (looked up): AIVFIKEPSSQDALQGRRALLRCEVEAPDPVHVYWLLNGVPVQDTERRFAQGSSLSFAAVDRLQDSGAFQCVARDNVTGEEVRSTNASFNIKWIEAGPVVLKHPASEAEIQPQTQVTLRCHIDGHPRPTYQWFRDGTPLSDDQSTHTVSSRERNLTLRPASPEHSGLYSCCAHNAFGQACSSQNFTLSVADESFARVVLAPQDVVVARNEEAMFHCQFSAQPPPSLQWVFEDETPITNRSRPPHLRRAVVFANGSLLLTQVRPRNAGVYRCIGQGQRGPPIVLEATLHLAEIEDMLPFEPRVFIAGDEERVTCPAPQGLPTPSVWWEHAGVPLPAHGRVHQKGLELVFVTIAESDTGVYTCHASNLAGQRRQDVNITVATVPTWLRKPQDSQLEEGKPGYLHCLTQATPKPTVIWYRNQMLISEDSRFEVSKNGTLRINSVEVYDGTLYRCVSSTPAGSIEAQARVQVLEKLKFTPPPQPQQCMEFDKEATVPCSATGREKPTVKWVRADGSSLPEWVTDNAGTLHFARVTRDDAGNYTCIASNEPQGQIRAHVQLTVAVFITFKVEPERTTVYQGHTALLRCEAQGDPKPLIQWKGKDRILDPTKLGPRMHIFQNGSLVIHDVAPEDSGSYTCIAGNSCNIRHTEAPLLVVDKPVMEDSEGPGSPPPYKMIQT

[1] = biological target: T2, hPTK7-His (soluble His-tagged human PTK7 extracellular domain) (human, UniProt Q13308 31-704); experiment: ForteBio (superscript F); column Affinity (nM)
T2 construct: also called PTK7-ECD-His; monomeric recombinant hPTK7-His (isoform a)
T2 sequence: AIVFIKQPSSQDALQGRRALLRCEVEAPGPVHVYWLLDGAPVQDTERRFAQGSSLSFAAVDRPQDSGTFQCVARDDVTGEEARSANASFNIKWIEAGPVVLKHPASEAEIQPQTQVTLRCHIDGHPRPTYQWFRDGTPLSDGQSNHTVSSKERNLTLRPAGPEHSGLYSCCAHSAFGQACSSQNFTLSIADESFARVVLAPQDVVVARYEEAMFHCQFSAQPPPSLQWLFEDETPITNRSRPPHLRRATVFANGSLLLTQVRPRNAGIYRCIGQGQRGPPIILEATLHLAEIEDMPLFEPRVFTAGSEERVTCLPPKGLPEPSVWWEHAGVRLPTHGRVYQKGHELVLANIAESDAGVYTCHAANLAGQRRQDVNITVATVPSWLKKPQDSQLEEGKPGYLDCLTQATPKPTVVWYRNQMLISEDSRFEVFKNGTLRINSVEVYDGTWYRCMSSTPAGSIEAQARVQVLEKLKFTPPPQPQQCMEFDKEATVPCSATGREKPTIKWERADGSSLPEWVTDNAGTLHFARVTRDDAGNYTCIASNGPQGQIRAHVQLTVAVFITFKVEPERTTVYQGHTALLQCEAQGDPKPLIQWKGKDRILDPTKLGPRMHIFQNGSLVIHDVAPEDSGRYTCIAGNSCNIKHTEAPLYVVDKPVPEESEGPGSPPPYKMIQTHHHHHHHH

[2] = biological target: T3, human PTK7, full length, expressed on transduced cells (human, UniProt Q13308 31-1070); experiment: cell-based or functional assay
T3 sequence: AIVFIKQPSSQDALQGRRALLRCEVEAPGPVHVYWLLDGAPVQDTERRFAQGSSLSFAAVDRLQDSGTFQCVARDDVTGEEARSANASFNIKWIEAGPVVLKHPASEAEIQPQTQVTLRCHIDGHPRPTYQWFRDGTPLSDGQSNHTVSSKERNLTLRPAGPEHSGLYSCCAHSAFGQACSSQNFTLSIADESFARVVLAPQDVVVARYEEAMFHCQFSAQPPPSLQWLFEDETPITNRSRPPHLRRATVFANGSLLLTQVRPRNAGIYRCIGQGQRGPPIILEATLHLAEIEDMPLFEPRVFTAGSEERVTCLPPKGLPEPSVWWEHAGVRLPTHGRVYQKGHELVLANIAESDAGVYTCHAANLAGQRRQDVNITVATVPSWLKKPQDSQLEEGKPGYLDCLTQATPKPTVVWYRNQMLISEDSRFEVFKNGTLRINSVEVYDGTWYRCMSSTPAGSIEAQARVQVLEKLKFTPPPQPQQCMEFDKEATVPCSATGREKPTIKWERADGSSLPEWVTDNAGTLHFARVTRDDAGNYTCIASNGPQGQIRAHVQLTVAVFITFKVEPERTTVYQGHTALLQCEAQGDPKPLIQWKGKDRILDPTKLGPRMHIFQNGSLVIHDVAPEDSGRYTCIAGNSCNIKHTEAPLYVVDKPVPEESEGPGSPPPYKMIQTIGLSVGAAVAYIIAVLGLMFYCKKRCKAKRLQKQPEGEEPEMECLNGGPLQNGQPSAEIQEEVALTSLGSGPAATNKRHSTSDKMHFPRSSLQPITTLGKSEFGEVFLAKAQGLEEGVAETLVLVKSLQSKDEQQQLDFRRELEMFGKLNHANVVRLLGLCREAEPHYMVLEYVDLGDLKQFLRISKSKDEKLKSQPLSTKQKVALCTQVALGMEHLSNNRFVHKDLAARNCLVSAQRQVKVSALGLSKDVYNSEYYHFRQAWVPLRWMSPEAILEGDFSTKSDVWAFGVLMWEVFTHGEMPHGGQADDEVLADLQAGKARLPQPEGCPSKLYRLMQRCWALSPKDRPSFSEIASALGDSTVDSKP

[3] = biological target: T2, hPTK7-His (soluble His-tagged human …); experiment: Biacore (paragraph 369 names ForteBio for FIGS. 7C-7E)
[4] = biological target: T2, hPTK7-His (soluble His-tagged human …); experiment: Biacore (superscript B); column Affinity (nM)
[5] = biological target: T2, hPTK7-His (soluble His-tagged human …); experiment: SPR, Biacore, antigen at 25, 12.5 and 6.25 nM, 1:1 Langmuir model; murine parent antibody
[6] = biological target: T2, hPTK7-His (soluble His-tagged human …); experiment: SPR, Biacore, antigen at 25, 12.5 and 6.25 nM, 1:1 Langmuir model; humanized construct
[7] = biological target: T3, human PTK7, full length, expressed on …; experiment: cell-based or functional assay; remark: listed apart in the source

| Binder | binding result (murine PTK7-His) | EC50, saporin (Fab-ZAP) cell killing, 293.PTK7 Cells [2] | Kd [3] | Kd [4] | reduction in viability of 293.PTK7 cells at 100 pM (Fab-ZAP human) [7] | further results |
| --- | --- | --- | --- | --- | --- | --- |
| B1 | binds | 0.0306 nM | – | – | – | Kd [1]: < 0.1 nM |
| B2 | binds | 0.0023 nM | 0.6 nM | 0.6 nM | – | – |
| B3 | binds | 0.0011 nM | – | – | – | Kd [5]: 2.3 nM |
| B4 | – | – | – | – | > 80% | Kd [6]: 3.9 nM |
| B5 | binds | 0.0104 nM | 0.5 nM | 0.5 nM | – | – |
| B6 | – | – | 2.1 nM | – | – | – |
| B7 | binds | 0.0023 nM | 1 nM | 1 nM | – | – |
| B8 | – | – | – | – | > 80% | – |
| B9 | – | – | 1 nM | – | > 80% | – |
